In publication PMC10786891, “Massively parallel profiling of RNA-targeting CRISPR-Cas13d”:

T1: EsCas13d, nuclease-dead (Eubacterium siraeum, UniProt B0MS50, R295A;H300A;R849A;H854A)
T1 sequence: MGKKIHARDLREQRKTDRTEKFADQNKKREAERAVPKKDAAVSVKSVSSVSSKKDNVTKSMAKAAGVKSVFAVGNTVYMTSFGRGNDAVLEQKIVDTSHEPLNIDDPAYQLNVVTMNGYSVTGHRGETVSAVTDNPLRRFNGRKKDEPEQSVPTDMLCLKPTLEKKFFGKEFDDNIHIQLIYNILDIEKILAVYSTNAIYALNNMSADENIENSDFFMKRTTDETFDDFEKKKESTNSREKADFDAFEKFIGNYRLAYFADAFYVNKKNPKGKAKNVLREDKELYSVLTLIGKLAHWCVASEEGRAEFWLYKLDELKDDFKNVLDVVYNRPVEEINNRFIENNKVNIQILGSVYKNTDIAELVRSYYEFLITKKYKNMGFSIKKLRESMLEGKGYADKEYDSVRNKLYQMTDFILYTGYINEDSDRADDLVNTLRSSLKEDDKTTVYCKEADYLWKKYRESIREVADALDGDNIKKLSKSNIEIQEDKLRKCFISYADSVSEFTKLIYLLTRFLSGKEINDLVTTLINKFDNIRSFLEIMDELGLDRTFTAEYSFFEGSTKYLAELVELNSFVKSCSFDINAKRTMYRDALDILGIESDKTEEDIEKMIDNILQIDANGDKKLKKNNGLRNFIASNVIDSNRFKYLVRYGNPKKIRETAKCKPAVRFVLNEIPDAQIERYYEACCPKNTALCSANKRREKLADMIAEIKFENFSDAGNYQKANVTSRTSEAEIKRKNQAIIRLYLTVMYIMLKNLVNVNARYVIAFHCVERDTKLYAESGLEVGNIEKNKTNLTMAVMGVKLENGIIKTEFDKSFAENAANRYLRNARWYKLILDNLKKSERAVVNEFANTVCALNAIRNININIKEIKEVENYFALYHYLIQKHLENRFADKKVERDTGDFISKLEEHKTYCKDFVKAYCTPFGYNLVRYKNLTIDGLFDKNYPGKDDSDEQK


Biological target: T1, EsCas13d, nuclease-dead
Test: crRNA (strand 1, pre-loaded); Mg2+; 40 mM Tris-HCl pH 7.5, 150 mM NaCl, 6 mM MgCl2, 1 mM DTT, 0.1% Tween-20, 0.2 mg/ml BSA; 25 C; 10 min per concentration, then washed
Conditions: tags: His6-TwinStrep-SUMO cleaved; N-terminal SNAP kept (SNAP-Surface 488); label: 3' end held by stalled T7 RNA polymerase

| Binder | Kd [nM] |
| --- | --- |
| target 1 insU 3' of 12,insA 3' of 7 (mixed) RNA 1: CACCCGUGCAAAAAUGCAGGGGUCUAAAACUGAGCGGAUAACCUCUCUAUGG RNA 2: GGGAAUGGAUCCACAUCUACGAAUUCGUACCAUAGAGAGGUUUAUCACGCUCACCGAGAUCGGAAGAGCACACGU | 5.36 ± 0.2 |
| target 1 MT 5'PFS GUA 3'PFS CUA (mixed) RNA 1: CACCCGUGCAAAAAUGCAGGGGUCUAAAACUGAGCGGAUAACCUCUCUAUGG RNA 2: GGGAAUGGAUCCACAUCUACGAAUUCGUACCAUAGAGAGGUUAUCCGCUCACUAAGAUCGGAAGAGCACACGU | 10.2 ± 0.7 |
| target 1 MT 5'PFS GGC 3'PFS CGG (mixed) RNA 1: CACCCGUGCAAAAAUGCAGGGGUCUAAAACUGAGCGGAUAACCUCUCUAUGG RNA 2: GGGAAUGGAUCCACAUCUACGAAUUCGGCCCAUAGAGAGGUUAUCCGCUCACGGAGAUCGGAAGAGCACACGU | 27.5 ± 5.5 |
| target 1 MT 5'PFS UAA 3'PFS AAU (mixed) RNA 1: CACCCGUGCAAAAAUGCAGGGGUCUAAAACUGAGCGGAUAACCUCUCUAUGG RNA 2: GGGAAUGGAUCCACAUCUACGAAUUCUAACCAUAGAGAGGUUAUCCGCUCAAAUAGAUCGGAAGAGCACACGU | 55 ± 16 |
| target 1 MT 5'PFS GUU 3'PFS CCA (mixed) RNA 1: CACCCGUGCAAAAAUGCAGGGGUCUAAAACUGAGCGGAUAACCUCUCUAUGG RNA 2: GGGAAUGGAUCCACAUCUACGAAUUCGUUCCAUAGAGAGGUUAUCCGCUCACCAAGAUCGGAAGAGCACACGU | 34 ± 8 |
| target 1 MT 5'PFS GCU 3'PFS CGU (mixed) RNA 1: CACCCGUGCAAAAAUGCAGGGGUCUAAAACUGAGCGGAUAACCUCUCUAUGG RNA 2: GGGAAUGGAUCCACAUCUACGAAUUCGCUCCAUAGAGAGGUUAUCCGCUCACGUAGAUCGGAAGAGCACACGU | 33.5 ± 8 |
| target 1 MT 5'PFS GUA 3'PFS CUG (mixed) RNA 1: CACCCGUGCAAAAAUGCAGGGGUCUAAAACUGAGCGGAUAACCUCUCUAUGG RNA 2: GGGAAUGGAUCCACAUCUACGAAUUCGUACCAUAGAGAGGUUAUCCGCUCACUGAGAUCGGAAGAGCACACGU | 7.89 ± 0.47 |
| target 1 C7G,C21A (mixed) RNA 1: CACCCGUGCAAAAAUGCAGGGGUCUAAAACUGAGCGGAUAACCUCUCUAUGG RNA 2: GGGAAUGGAUCCACAUCUACGAAUUCGUACAAUAGAGAGGUUAUGCGCUCACCGAGAUCGGAAGAGCACACGU | 30 ± 2.3 |
| target 1 MT 5'PFS UAA 3'PFS CGA (mixed) RNA 1: CACCCGUGCAAAAAUGCAGGGGUCUAAAACUGAGCGGAUAACCUCUCUAUGG RNA 2: GGGAAUGGAUCCACAUCUACGAAUUCUAACCAUAGAGAGGUUAUCCGCUCACGAAGAUCGGAAGAGCACACGU | 50 ± 23 |
| target 1 MT 5'PFS GCA 3'PFS ACA (mixed) RNA 1: CACCCGUGCAAAAAUGCAGGGGUCUAAAACUGAGCGGAUAACCUCUCUAUGG RNA 2: GGGAAUGGAUCCACAUCUACGAAUUCGCACCAUAGAGAGGUUAUCCGCUCAACAAGAUCGGAAGAGCACACGU | 25.5 ± 4.5 |
| target 1 MT 5'PFS GAC 3'PFS CUC (mixed) RNA 1: CACCCGUGCAAAAAUGCAGGGGUCUAAAACUGAGCGGAUAACCUCUCUAUGG RNA 2: GGGAAUGGAUCCACAUCUACGAAUUCGACCCAUAGAGAGGUUAUCCGCUCACUCAGAUCGGAAGAGCACACGU | 24 ± 10 |
| target 1 MT 5'PFS GUU 3'PFS CCU (mixed) RNA 1: CACCCGUGCAAAAAUGCAGGGGUCUAAAACUGAGCGGAUAACCUCUCUAUGG RNA 2: GGGAAUGGAUCCACAUCUACGAAUUCGUUCCAUAGAGAGGUUAUCCGCUCACCUAGAUCGGAAGAGCACACGU | 11.6 ± 1.9 |
| target 1 MT 5'PFS UAA 3'PFS AAC (mixed) RNA 1: CACCCGUGCAAAAAUGCAGGGGUCUAAAACUGAGCGGAUAACCUCUCUAUGG RNA 2: GGGAAUGGAUCCACAUCUACGAAUUCUAACCAUAGAGAGGUUAUCCGCUCAAACAGAUCGGAAGAGCACACGU | 40 ± 11 |
| target 1 MT 5'PFS GUU 3'PFS CCC (mixed) RNA 1: CACCCGUGCAAAAAUGCAGGGGUCUAAAACUGAGCGGAUAACCUCUCUAUGG RNA 2: GGGAAUGGAUCCACAUCUACGAAUUCGUUCCAUAGAGAGGUUAUCCGCUCACCCAGAUCGGAAGAGCACACGU | 26.5 ± 8.5 |
| target 1 MT 5'PFS UAA 3'PFS CGG (mixed) RNA 1: CACCCGUGCAAAAAUGCAGGGGUCUAAAACUGAGCGGAUAACCUCUCUAUGG RNA 2: GGGAAUGGAUCCACAUCUACGAAUUCUAACCAUAGAGAGGUUAUCCGCUCACGGAGAUCGGAAGAGCACACGU | 55.5 ± 17 |
| target 1 U11C,C21U (mixed) RNA 1: CACCCGUGCAAAAAUGCAGGGGUCUAAAACUGAGCGGAUAACCUCUCUAUGG RNA 2: GGGAAUGGAUCCACAUCUACGAAUUCGUACUAUAGAGAGGCUAUCCGCUCACCGAGAUCGGAAGAGCACACGU | 9.9 ± 0.4 |
| target 1 MT 5'PFS UGG 3'PFS UAA (mixed) RNA 1: CACCCGUGCAAAAAUGCAGGGGUCUAAAACUGAGCGGAUAACCUCUCUAUGG RNA 2: GGGAAUGGAUCCACAUCUACGAAUUCUGGCCAUAGAGAGGUUAUCCGCUCAUAAAGAUCGGAAGAGCACACGU | 79.5 ± 27.5 |
| target 1 MT 5'PFS GAC 3'PFS CUA (mixed) RNA 1: CACCCGUGCAAAAAUGCAGGGGUCUAAAACUGAGCGGAUAACCUCUCUAUGG RNA 2: GGGAAUGGAUCCACAUCUACGAAUUCGACCCAUAGAGAGGUUAUCCGCUCACUAAGAUCGGAAGAGCACACGU | 15.5 ± 5 |
| target 1 MT 5'PFS GAC 3'PFS CUU (mixed) RNA 1: CACCCGUGCAAAAAUGCAGGGGUCUAAAACUGAGCGGAUAACCUCUCUAUGG RNA 2: GGGAAUGGAUCCACAUCUACGAAUUCGACCCAUAGAGAGGUUAUCCGCUCACUUAGAUCGGAAGAGCACACGU | 12.1 ± 3.65 |
| target 1 MT 5'PFS GUU 3'PFS CCG (mixed) RNA 1: CACCCGUGCAAAAAUGCAGGGGUCUAAAACUGAGCGGAUAACCUCUCUAUGG RNA 2: GGGAAUGGAUCCACAUCUACGAAUUCGUUCCAUAGAGAGGUUAUCCGCUCACCGAGAUCGGAAGAGCACACGU | 11.2 ± 1.55 |
| target 1 MT 5'PFS GAC 3'PFS CUG (mixed) RNA 1: CACCCGUGCAAAAAUGCAGGGGUCUAAAACUGAGCGGAUAACCUCUCUAUGG RNA 2: GGGAAUGGAUCCACAUCUACGAAUUCGACCCAUAGAGAGGUUAUCCGCUCACUGAGAUCGGAAGAGCACACGU | 19 ± 6.5 |
| target 1 MT 5'PFS UAA 3'PFS AAA (mixed) RNA 1: CACCCGUGCAAAAAUGCAGGGGUCUAAAACUGAGCGGAUAACCUCUCUAUGG RNA 2: GGGAAUGGAUCCACAUCUACGAAUUCUAACCAUAGAGAGGUUAUCCGCUCAAAAAGAUCGGAAGAGCACACGU | 47 ± 15.5 |
| target 1 MT 5'PFS CCG 3'PFS AUU (mixed) RNA 1: CACCCGUGCAAAAAUGCAGGGGUCUAAAACUGAGCGGAUAACCUCUCUAUGG RNA 2: GGGAAUGGAUCCACAUCUACGAAUUCCCGCCAUAGAGAGGUUAUCCGCUCAAUUAGAUCGGAAGAGCACACGU | 3.75 ± 1.75 |
| target 1 MT 5'PFS GUA 3'PFS CUC (mixed) RNA 1: CACCCGUGCAAAAAUGCAGGGGUCUAAAACUGAGCGGAUAACCUCUCUAUGG RNA 2: GGGAAUGGAUCCACAUCUACGAAUUCGUACCAUAGAGAGGUUAUCCGCUCACUCAGAUCGGAAGAGCACACGU | 13.8 ± 1.15 |
